Measurements as given in IntAct's records for PubMed 34964704.

B1: Claudin-2 (Homo sapiens), P57739 (parent)
chain: MASLGLQLVGYILGLLGLLGTLVAMLLPSWKTSSYVGASIVTAVGFSKGLWMECATHSTGITQCDIYSTLLGLPADIQAAQAMMVTSSAISSLACIISVVGMRCTVFCQESRAKDRVAVAGGVFFILGGLLGFIPVAWNLHGILRDFYSPLVPDSMKFEIGEALYLGIISSLFSLIAGIILCFSCSSQRNRSNYYDAYQAQPLATRSSPRPGQPPKVKSEFNSYSLTGYV

Variants of: B1
Conditions: with ap2m1_human AP2M1, Q96CW1
Chain of ap2m1_human AP2M1, Q96CW1 (Q96CW1 whole entry): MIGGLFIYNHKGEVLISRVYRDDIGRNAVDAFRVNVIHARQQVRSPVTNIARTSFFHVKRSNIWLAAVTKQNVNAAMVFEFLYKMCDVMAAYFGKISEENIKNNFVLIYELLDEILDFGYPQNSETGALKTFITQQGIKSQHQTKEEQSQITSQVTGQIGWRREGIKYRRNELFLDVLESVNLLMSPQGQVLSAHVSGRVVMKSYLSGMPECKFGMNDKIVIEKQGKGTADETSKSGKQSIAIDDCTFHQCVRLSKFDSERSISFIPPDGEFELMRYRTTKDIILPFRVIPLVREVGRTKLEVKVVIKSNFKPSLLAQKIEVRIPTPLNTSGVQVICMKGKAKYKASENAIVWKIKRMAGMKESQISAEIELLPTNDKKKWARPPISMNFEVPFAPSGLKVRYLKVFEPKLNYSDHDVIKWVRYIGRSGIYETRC

| Variant | effect of a mutation on the interaction |
| --- | --- |
| MASLGLQLVGYILGLLGLLGTLVAMLLPSWKTSSYVGASIVTAVGFSKGLWMECATHSTGITQCDIYSTLLGLPADIQAAQAMMVTSSAISSLACIISVVGMRCTVFCQESRAKDRVAVAGGVFFILGGLLGFIPVAWNLHGILRDFASPAVPDSMKFEIGEALYLGIISSLFSLIAGIILCFSCSSQRNRSNYYDAYQAQPLATRSSPRPGQPPKVKSEFNSYSLTGYV [Y148A;L151A] | decreasing interaction strength |
| MASLGLQLVGYILGLLGLLGTLVAMLLPSWKTSSYVGASIVTAVGFSKGLWMECATHSTGITQCDIASTALGLPADIQAAQAMMVTSSAISSLACIISVVGMRCTVFCQESRAKDRVAVAGGVFFILGGLLGFIPVAWNLHGILRDFYSPLVPDSMKFEIGEALYLGIISSLFSLIAGIILCFSCSSQRNRSNYYDAYQAQPLATRSSPRPGQPPKVKSEFNSYSLTGYV [Y67A;L70A] | disrupting interaction strength |
| MASLGLQLVGYILGLLGLLGTLVAMLLPSWKTSSYVGASIVTAVGFSKGLWMECATHSTGITQCDIASTALGLPADIQAAQAMMVTSSAISSLACIISVVGMRCTVFCQESRAKDRVAVAGGVFFILGGLLGFIPVAWNLHGILRDFASPAVPDSMKFEIGEALYLGIISSLFSLIAGIILCFSCSSQRNRSNYYDAYQAQPLATRSSPRPGQPPKVKSEFNSYSLTGYV [Y67A;L70A;Y148A;L151A] | disrupting interaction strength |

Variants of: B1
Conditions: with ap2m1_human AP2M1, Q96CW1
Remark: another data set of the same source

| Variant | effect of a mutation on the interaction |
| --- | --- |
| MASLGLQLVGYILGLLGLLGTLVAMLLPSWKTSSYVGASIVTAVGFSKGLWMECATHSTGITQCDIASTALGLPADIQAAQAMMVTSSAISSLACIISVVGMRCTVFCQESRAKDRVAVAGGVFFILGGLLGFIPVAWNLHGILRDFASPAVPDSMKFEIGEALYLGIISSLFSLIAGIILCFSCSSQRNRSNYYDAYQAQPLATRSSPRPGQPPKVKSEFNSYSLTGYV [Y67A;L70A;Y148A;L151A] | disrupting interaction |
